Results as given in patent US8158579B2, “Fusion protein of an exendin to modified transferrin” (BioRexis Pharmaceutical Corporation, priority 2006, dated 2012).

B1: pREX0659: exendin-4(1-30) fragment fused via (PEAPTD)2 linker to mTf (SEQ ID NO: 17) (protein)
chain: HGEGTFTSDLSKQMEEEAVRLFIEWLKNGGPEAPTDPEAPTDVPDKTVRWCAVSEHEATKCQSFRDHMKSVIPSDGPSVACVKKASYLDCIRAIAANEADAVTLDAGLVYDAYLAPNNLKPVVAEFYGSKEDPQTFYYAVAVVKKDSGFQMNQLRGKKSCHTGLGRSAGWNIPIGLLYCDLPEPRKPLEKAVANFFSGSCAPCADGTDFPQLCQLCPGCGCSTLNQYFGYSGAFKCLKDGAGDVAFVKHSTIFENLANKADRDQYELLCLDNTRKPVDEYKDCHLAQVPSHTVVARSMGGKEDLIWELLNQAQEHFGKDKSKEFQLFSSPHGKDLLFKDSAHGFLKVPPRMDAKMYLGYEYVTAIRNLREGTCPEAPTDECKPVKWCALSHHERLKCDEWSVNSVGKIECVSAETTEDCIAKIMNGEADAMSLDGGFVYIAGKCGLVPVLAENYNKADNCEDTPEAGYFAVAVVKKSASDLTWDNLKGKKSCHTAVGRTAGWNIPMGLLYNKINHCRFDEFFSEGCAPGSKKDSSLCKLCMGSGLNLCEPNNKEGYYGYTGAFRCLVEKGDVAFVKHQTVPQNTGGKNPDPWAKNLNEKDYELLCLDGTRKPVEEYANCHLARAPNHAVVTRKDKEACVHKILRQQQHLFGSNVADCSGNFCLFRSETKDLLFRDDTVCLAKLHDRNTYEKYLGEEYVKAVGNLRKCSTSSLLEACTFRRP
B2: pREX0658: exendin-4(1-31) fragment fused via (PEAPTD)2 linker to mTf (SEQ ID NO: 17) (protein)
chain: HGEGTFTSDLSKQMEEEAVRLFIEWLKNGGPPEAPTDPEAPTDVPDKTVRWCAVSEHEATKCQSFRDHMKSVIPSDGPSVACVKKASYLDCIRAIAANEADAVTLDAGLVYDAYLAPNNLKPVVAEFYGSKEDPQTFYYAVAVVKKDSGFQMNQLRGKKSCHTGLGRSAGWNIPIGLLYCDLPEPRKPLEKAVANFFSGSCAPCADGTDFPQLCQLCPGCGCSTLNQYFGYSGAFKCLKDGAGDVAFVKHSTIFENLANKADRDQYELLCLDNTRKPVDEYKDCHLAQVPSHTVVARSMGGKEDLIWELLNQAQEHFGKDKSKEFQLFSSPHGKDLLFKDSAHGFLKVPPRMDAKMYLGYEYVTAIRNLREGTCPEAPTDECKPVKWCALSHHERLKCDEWSVNSVGKIECVSAETTEDCIAKIMNGEADAMSLDGGFVYIAGKCGLVPVLAENYNKADNCEDTPEAGYFAVAVVKKSASDLTWDNLKGKKSCHTAVGRTAGWNIPMGLLYNKINHCRFDEFFSEGCAPGSKKDSSLCKLCMGSGLNLCEPNNKEGYYGYTGAFRCLVEKGDVAFVKHQTVPQNTGGKNPDPWAKNLNEKDYELLCLDGTRKPVEEYANCHLARAPNHAVVTRKDKEACVHKILRQQQHLFGSNVADCSGNFCLFRSETKDLLFRDDTVCLAKLHDRNTYEKYLGEEYVKAVGNLRKCSTSSLLEACTFRRP

Molecular target: T1, rat GLP-1 receptor (Rattus norvegicus, UniProt P32301)
T1 construct: expressed in transfected cells; host or cells: CHO (CHO-GLP-1R)
T1 sequence (P32301 22-463): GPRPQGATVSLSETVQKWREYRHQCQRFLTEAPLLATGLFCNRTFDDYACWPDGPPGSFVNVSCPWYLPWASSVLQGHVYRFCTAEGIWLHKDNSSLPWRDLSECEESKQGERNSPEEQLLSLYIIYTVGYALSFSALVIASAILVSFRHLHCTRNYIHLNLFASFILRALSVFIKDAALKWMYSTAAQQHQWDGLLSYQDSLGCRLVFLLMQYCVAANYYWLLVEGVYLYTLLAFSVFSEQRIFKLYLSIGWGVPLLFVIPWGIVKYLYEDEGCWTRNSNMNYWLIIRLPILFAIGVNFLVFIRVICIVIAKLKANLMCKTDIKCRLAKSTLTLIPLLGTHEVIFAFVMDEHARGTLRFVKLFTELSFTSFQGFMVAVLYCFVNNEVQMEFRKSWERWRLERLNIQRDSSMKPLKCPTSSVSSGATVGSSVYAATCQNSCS
Assay: cAMP potency assay in CHO cells transfected with the rat GLP-1 receptor (CHO-GLP-1R)
Format: cell-based
Conditions: cAMP accumulation in CHO-GLP-1R cells
Protocol: 96-well tissue culture plates were seeded with CHO-GLP-1R cells and cultured overnight. The following day, the cells were rinsed with Krebs-Ringer buffer (KRB) and incubated in KRB containing the phosphodiesterase inhibitor 3-isobutyl-1-methylxanthine (IBMX, 2 mM) to inhibit intracellular enzymes that process cAMP. Serial dilutions of test compounds and controls were prepared in KRB/IBMX and triplicate wells of cells were inoculated with samples and controls. After incubation, individual sample lysates were then assayed to measure the increase in intracellular cAMP levels using a competition-based fluorescent immunoassay (CatchPoint® cAMP Fluorescent Assay Kit, Molecular Devices Corp., Sunnyvale, Calif.).

Molecule | EC50 [nM]
B1 | 0.85
B2 | 0.33
